Data from US20250129419A1, “REAGENTS FOR LABELING BIOMOLECULES AND USES THEREOF” (Ultima Genomics, Inc., priority 2022, published 2025).

How the values were obtained:
[1] = evaluation of dye-labeled nucleotides including guanine (sequencing assay); details: lacks the hyp10 linker
Procedure: Nucleotides including guanine or analogs thereof may perform more poorly in sequencing applications (e.g., as described herein) in base-calling accuracy. This may be related to photoinduced electron transfer from the nucleobase to a dye linked to the nucleobase, which may quench signal emitted by the dye and thus less dynamic range of signal. Accordingly, various dye-labeled nucleotides including guanine or analogs thereof are prepared and evaluated as provided herein. Examples of such dye-labeled nucleotides include:
Several of the structures shown above include the hyp10 linker which includes the sequence Gly-Hyp-Hyp-Hyp-Hyp-Hyp-Hyp-Hyp-Hyp-Hyp-Hyp from the N-terminal end. […] The remaining dye-labeled nucleotides are evaluated in a sequencing assay, as described herein. […] Additional structures including different numbers of hydroxyprolines, including hyp20 and hyp30 moieties, may also be incorporated into fluorescent labeling reagents.

[2] = target: bovine serum albumin (BSA) (Bos taurus, UniProt P02769); test: fluorescence of BSA labeled with different ATTO 532 labeling moieties; details: BSA labeled with ATTO 532, FIG. 16
Description: The effect of functional separation between an optically detectable moiety (e.g., fluorescent dye) and a substrate was investigated using bovine serum albumin (BSA). BSA was fluorescently labeled with ATTO 532 according to the following schemes: in the absence of a linker providing separation between the BSA and ATTO 532 moieties (“Atto532”), using PEG16 as a linker to provide separation between the BSA and ATTO 532 moieties (“Atto532-PEG16”), using a hyp10 moiety to provide separation between the BSA and ATTO 532 moieties (“Atto532-hyp10”), and using a hyp30 moiety to provide separation between the BSA and ATTO 532 moieties (“Atto532-hyp30”). Labeled BSA was purified from free dye using Millipore centrifugal filters.

Chain of bovine serum albumin (BSA) (P02769 25-607): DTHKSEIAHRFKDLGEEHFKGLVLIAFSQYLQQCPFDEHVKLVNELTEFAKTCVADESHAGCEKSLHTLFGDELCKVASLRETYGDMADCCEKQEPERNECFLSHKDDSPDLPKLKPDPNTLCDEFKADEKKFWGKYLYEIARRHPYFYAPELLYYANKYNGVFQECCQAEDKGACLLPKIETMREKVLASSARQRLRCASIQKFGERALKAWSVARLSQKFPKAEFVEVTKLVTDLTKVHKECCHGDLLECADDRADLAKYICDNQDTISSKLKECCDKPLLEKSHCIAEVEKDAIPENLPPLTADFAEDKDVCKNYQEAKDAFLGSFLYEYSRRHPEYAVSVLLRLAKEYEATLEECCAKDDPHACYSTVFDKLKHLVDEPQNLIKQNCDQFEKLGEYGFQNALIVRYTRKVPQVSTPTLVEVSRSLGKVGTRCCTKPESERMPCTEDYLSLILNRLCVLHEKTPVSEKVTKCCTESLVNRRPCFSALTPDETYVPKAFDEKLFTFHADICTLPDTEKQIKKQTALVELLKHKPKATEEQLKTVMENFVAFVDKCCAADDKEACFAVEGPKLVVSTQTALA

Molecule	quenching [1]	self-quenching on BSA protein [2]
CCN1CCCc2cc3c(cc21)C(C)(C)C1=CC(=[N+](C)C)C=CC1=C3c1ccccc1C(=O)N(C)CCCC(=O)NC(CS(=O)(=O)[O-])C(=O)NCCSSCCC(=O)NCC#Cc1cn([C@H]2C[C@@H](O)[C@@H](COP(=O)(O)OP(=O)(O)OP(=O)(O)O)O2)c2nc(N)[nH]c(=O)c12 (some centres unmarked) [G4]	highly quenched	
Atto532-PEG16: BSA labeled with ATTO 532 using PEG16 as a linker [reference compound]		did not improve quenching over ATTO 532 alone
